Test results as given in patent US20190046652A1 (AADIGEN, published 2019).
Ends that are not written are not given here.

B1: PC4, also noted PC4D (peptide)
peptide: RWTEWEWW
modifications: also: cyclic version, linkage not given here
B2: C4 (peptide)
peptide: KKQVRMAHLVLT
modifications: not fully specified
B3: C2 (peptide)
peptide: KKQVLAMEHLVT
modifications: not fully specified

How the values were obtained:
HIV integrase = HIV integrase (HIV-1-LAI, UniProt P03367 1160-1447); assay: cell-based or functional assay
CDK4/cyclin D complex = CDK4/cyclin D complex (UniProt P11802 2-303); assay: cell-based or functional assay
cdk2/cyclin A complex = cdk2/cyclin A complex (UniProt P24941 1-298; P20248 1-432); assay: cell-based or functional assay
C2 = molecular target: B3; assay: fluorescence titration, curve fitting
C4 = molecular target: B2; assay: fluorescence titration, curve fitting
PC4, also noted PC4D = molecular target: B1; assay: fluorescence titration, curve fitting

Chain of CDK4/cyclin D complex (P11802 2-303, one chain of several): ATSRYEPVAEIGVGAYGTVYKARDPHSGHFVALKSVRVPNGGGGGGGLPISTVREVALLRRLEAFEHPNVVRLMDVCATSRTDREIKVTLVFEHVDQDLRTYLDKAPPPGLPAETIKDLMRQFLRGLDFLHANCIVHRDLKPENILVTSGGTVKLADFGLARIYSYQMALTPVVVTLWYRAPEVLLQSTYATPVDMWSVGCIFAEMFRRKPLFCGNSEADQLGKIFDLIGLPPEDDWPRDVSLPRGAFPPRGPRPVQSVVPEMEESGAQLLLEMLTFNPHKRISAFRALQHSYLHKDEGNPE

B1
IC50, antiviral activity (RT activity in supernatants of HIV-1 LAI infected PBMC), peptide with VEPEP-3 carrier (HIV integrase): 0.12 nM

B2
IC50, proliferation of HEK-2 cells (C4 delivered by VEPEP-3) (CDK4/cyclin D complex): 78 nM | IC50, proliferation of Hela cells (C4 delivered by VEPEP-3) (CDK4/cyclin D complex): 35 nM | IC50, proliferation of MCF7 cells (C4 delivered by VEPEP-3) (CDK4/cyclin D complex): 58 nM

B3
IC50, proliferation of HEK-2 cells (C2 delivered by VEPEP-3) (cdk2/cyclin A complex): 102 nM | IC50, proliferation of Hela cells (C2 delivered by VEPEP-3) (cdk2/cyclin A complex): 37 nM

B4: VEPEP-3a (peptide)
peptide: XKWFERWFREWPRKRR
HELM: PEPTIDE1{[ac].[bAla].K.W.F.E.R.W.F.R.E.W.P.R.K.R.R.[SCCN[*:1]]}$$$$V2.0
SMILES: CC(=O)NCCC(=O)N[C@@H](CCCCN)C(=O)N[C@@H](Cc1c[nH]c2ccccc12)C(=O)N[C@@H](Cc1ccccc1)C(=O)N[C@@H](CCC(=O)O)C(=O)N[C@@H](CCCNC(=N)N)C(=O)N[C@@H](Cc1c[nH]c2ccccc12)C(=O)N[C@@H](Cc1ccccc1)C(=O)N[C@@H](CCCNC(=N)N)C(=O)N[C@@H](CCC(=O)O)C(=O)N[C@@H](Cc1c[nH]c2ccccc12)C(=O)N1CCC[C@H]1C(=O)N[C@@H](CCCNC(=N)N)C(=O)N[C@@H](CCCCN)C(=O)N[C@@H](CCCNC(=N)N)C(=O)N[C@@H](CCCNC(=N)N)C(=O)NCCS
notes: Synthetic cell-penetrating peptide
binding result (C2): binds | binding result (C4): binds | Kd (PC4, also noted PC4D): 50 to 100 nM

KWETWWET [PC6, also noted PC6D]
IC50, antiviral activity (RT activity in supernatants of HIV-1 LAI infected PBMC), peptide with VEPEP-3 carrier (HIV integrase): 0.09 nM
